Measurements from article PMC11429891.

Molecular target: human recombinant SNAP25 (Synaptosomal Associated Protein 25) (human) (UniProt P60880)
Assay: SPR

human recombinant SNAP25 (Synaptosomal Associated Protein 25) (human), sequence (P60880 whole entry): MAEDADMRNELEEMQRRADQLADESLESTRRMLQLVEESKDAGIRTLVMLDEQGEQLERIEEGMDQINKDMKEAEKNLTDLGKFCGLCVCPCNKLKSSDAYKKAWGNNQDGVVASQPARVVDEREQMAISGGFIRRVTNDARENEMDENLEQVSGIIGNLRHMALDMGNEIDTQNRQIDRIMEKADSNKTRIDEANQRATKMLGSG

Kd: 7.2 µM
Substance: Human type V Collagen (from UniProt P20908 38-1605; P05997 27-1229) (complex)
